B1: Mutation 1-23 (antibody, V domains shown)
VH: EVQLQQSGPELVKPGASVKMSCKASGYTFTLYVIHWVKQKPGQGLEWIGYIYPYIDGTKYNEKFKGKATLTVDKSSSTAFMELSSLTSEDSAVYYCARSGYGGYGLAWLAYWGQGTLVTVSA
VL: QAVVIQESALTTSPGETVTLTCRSSTGAVTTSNYANWVQEKPDHLFTGLIGGSQNRAPGVPARFSGSLIGDKAALTITGAQTEDEAIYFCALVYSNHWVFGGGTKLTVLG
notes: Built as m8
B2: Mutation 1-32 (antibody, V domains shown)
VH: EVQLQQSGPELVKPGASVKMSCKASGYTFTIYVIHWVKQKPGQGLEWIGYINPYLDGTKYNEKFKGKATLTVDKSSSTAFMELSSLTSEDSAVYYCARSGYGGYGLAWLAYWGQGTLVTVSA
VL: QAVVIQESALTTSPGETVTLTCRSSTGAATTSNYANWVQEKPDHLFTGLIGGSNNRAPGVPARFSGSLIGDKAALTITGAQTEDEAIYFCALVYSNHWVFGGGTKLTVLG
notes: Built as m8
B3: Mutation 1-30 (antibody, V domains shown)
VH: EVQLQQSGPELVKPGASVKMSCKASGYTFTIYVVHWVKQKPGQGLEWIGYIQPYLDGTKYNEKFKGKATLTVDKSSSTAFMELSSLTSEDSAVYYCARSGYGQYGLAWLAYWGQGTLVTVSA
VL: QAVVIQESALTTSPGETVTLTCRSSTGAATTSQYANWVQEKPDHLFTGLIGGSNNRAPGVPARFSGSLIGDKAALTITGAQTEDEAIYFCALVYSNQWVFGGGTKLTVLG
notes: Built as m8
B4: Mutation 1-27 (antibody, V domains shown)
VH: EVQLQQSGPELVKPGASVKMSCKASGYTFTLYVVHWVKQKPGQGLEWIGYIYPYLDGTKYNEKFKGKATLTVDKSSSTAFMELSSLTSEDSAVYYCARSGYGQYGLAWLAYWGQGTLVTVSA
VL: QAVVIQESALTTSPGETVTLTCRSSTGAVTTSNYANWVQEKPDHLFTGLIGGSQNRAPGVPARFSGSLIGDKAALTITGAQTEDEAIYFCALVYSNHWVFGGGTKLTVLG
notes: Built as m8
B5: Mutation 1-31 (antibody, V domains shown)
VH: EVQLQQSGPELVKPGASVKMSCKASGYTFTIYVLHWVKQKPGQGLEWIGYINPYIDGTKYNEKFKGKATLTVDKSSSTAFMELSSLTSEDSAVYYCARSGYGNYGLAWLAYWGQGTLVTVSA
VL: QAVVIQESALTTSPGETVTLTCRSSTGAATTSQYANWVQEKPDHLFTGLIGGSQNRAPGVPARFSGSLIGDKAALTITGAQTEDEAIYFCALVYSNNWVFGGGTKLTVLG
notes: Built as m8
B6: Mutation 1-39 (antibody, V domains shown)
VH: EVQLQQSGPELVKPGASVKMSCKASGYTFTLYVVHWVKQKPGQGLEWIGYIQPYLDGTKYNEKFKGKATLTVDKSSSTAFMELSSLTSEDSAVYYCARSGYGQYGLAWLAYWGQGTLVTVSA
VL: QAVVIQESALTTSPGETVTLTCRSSTGAVTTSNYANWVQEKPDHLFTGLIGGSQNRAPGVPARFSGSLIGDKAALTITGAQTEDEAIYFCALVYSNQWVFGGGTKLTVLG
notes: Built as m8
B7: Mutation 1-24 (antibody, V domains shown)
VH: EVQLQQSGPELVKPGASVKMSCKASGYTFTIYVVHWVKQKPGQGLEWIGYIYPYLDGTKYNEKFKGKATLTVDKSSSTAFMELSSLTSEDSAVYYCARSGYGQYGLAWLAYWGQGTLVTVSA
VL: QAVVIQESALTTSPGETVTLTCRSSTGAATTSQYANWVQEKPDHLFTGLIGGSNNRAPGVPARFSGSLIGDKAALTITGAQTEDEAIYFCALVYSNNWVFGGGTKLTVLG
notes: Built as m8
B8: Mutation 1-38 (antibody, V domains shown)
VH: EVQLQQSGPELVKPGASVKMSCKASGYTFTIYVIHWVKQKPGQGLEWIGYIYPYIDGTKYNEKFKGKATLTVDKSSSTAFMELSSLTSEDSAVYYCARSGYGGYGLAWLAYWGQGTLVTVSA
VL: QAVVIQESALTTSPGETVTLTCRSSTGAVTTSQYANWVQEKPDHLFTGLIGGSNNRAPGVPARFSGSLIGDKAALTITGAQTEDEAIYFCALVYSNNWVFGGGTKLTVLG
notes: Built as m8
B9: Mutation 1-33 (antibody, V domains shown)
VH: EVQLQQSGPELVKPGASVKMSCKASGYTFTLYVVHWVKQKPGQGLEWIGYIYPYIDGTKYNEKFKGKATLTVDKSSSTAFMELSSLTSEDSAVYYCARSGYGGYGLAWLAYWGQGTLVTVSA
VL: QAVVIQESALTTSPGETVTLTCRSSTGAATTSQYANWVQEKPDHLFTGLIGGSQNRAPGVPARFSGSLIGDKAALTITGAQTEDEAIYFCALVYSNNWVFGGGTKLTVLG
notes: Built as m8
B10: Mutation 1-42 (antibody, V domains shown)
VH: EVQLQQSGPELVKPGASVKMSCKASGYTFTLYVVHWVKQKPGQGLEWIGYINPYLDGTKYNEKFKGKATLTVDKSSSTAFMELSSLTSEDSAVYYCARSGYGQYGLAWLAYWGQGTLVTVSA
VL: QAVVIQESALTTSPGETVTLTCRSSTGAVTTSNYANWVQEKPDHLFTGLIGGSNNRAPGVPARFSGSLIGDKAALTITGAQTEDEAIYFCALVYSNHWVFGGGTKLTVLG
notes: Built as m8
B11: Mutation 1-28 (antibody, V domains shown)
VH: EVQLQQSGPELVKPGASVKMSCKASGYTFTLYVLHWVKQKPGQGLEWIGYIYPYLDGTKYNEKFKGKATLTVDKSSSTAFMELSSLTSEDSAVYYCARSGYGNYGLAWLAYWGQGTLVTVSA
VL: QAVVIQESALTTSPGETVTLTCRSSTGAATTSQYANWVQEKPDHLFTGLIGGSNNRAPGVPARFSGSLIGDKAALTITGAQTEDEAIYFCALVYSNQWVFGGGTKLTVLG
notes: Built as m8
B12: Mutation 1-26 (antibody, V domains shown)
VH: EVQLQQSGPELVKPGASVKMSCKASGYTFTIYVIHWVKQKPGQGLEWIGYIYPYLDGTKYNEKFKGKATLTVDKSSSTAFMELSSLTSEDSAVYYCARSGYGGYGLAWLAYWGQGTLVTVSA
VL: QAVVIQESALTTSPGETVTLTCRSSTGAVTTSQYANWVQEKPDHLFTGLIGGSNNRAPGVPARFSGSLIGDKAALTITGAQTEDEAIYFCALVYSNQWVFGGGTKLTVLG
notes: Built as m8
B13: Mutation 1-29 (antibody, V domains shown)
VH: EVQLQQSGPELVKPGASVKMSCKASGYTFTLYVIHWVKQKPGQGLEWIGYIQPYIDGTKYNEKFKGKATLTVDKSSSTAFMELSSLTSEDSAVYYCARSGYGGYGLAWLAYWGQGTLVTVSA
VL: QAVVIQESALTTSPGETVTLTCRSSTGAATTSQYANWVQEKPDHLFTGLIGGSQNRAPGVPARFSGSLIGDKAALTITGAQTEDEAIYFCALVYSNNWVFGGGTKLTVLG
notes: Built as m8
B14: Mutation 1-35 (antibody, V domains shown)
VH: EVQLQQSGPELVKPGASVKMSCKASGYTFTLYVIHWVKQKPGQGLEWIGYIQPYLDGTKYNEKFKGKATLTVDKSSSTAFMELSSLTSEDSAVYYCARSGYGGYGLAWLAYWGQGTLVTVSA
VL: QAVVIQESALTTSPGETVTLTCRSSTGAATTSNYANWVQEKPDHLFTGLIGGSQNRAPGVPARFSGSLIGDKAALTITGAQTEDEAIYFCALVYSNQWVFGGGTKLTVLG
notes: Built as m8
B15: Mutation 1-40 (antibody, V domains shown)
VH: EVQLQQSGPELVKPGASVKMSCKASGYTFTIYVLHWVKQKPGQGLEWIGYIQPYLDGTKYNEKFKGKATLTVDKSSSTAFMELSSLTSEDSAVYYCARSGYGNYGLAWLAYWGQGTLVTVSA
VL: QAVVIQESALTTSPGETVTLTCRSSTGAVTTSNYANWVQEKPDHLFTGLIGGSNNRAPGVPARFSGSLIGDKAALTITGAQTEDEAIYFCALVYSNNWVFGGGTKLTVLG
notes: Built as m8
B16: Mutation 1-37 (antibody, V domains shown)
VH: EVQLQQSGPELVKPGASVKMSCKASGYTFTIYVLHWVKQKPGQGLEWIGYINPYLDGTKYNEKFKGKATLTVDKSSSTAFMELSSLTSEDSAVYYCARSGYGNYGLAWLAYWGQGTLVTVSA
VL: QAVVIQESALTTSPGETVTLTCRSSTGAVTTSQYANWVQEKPDHLFTGLIGGSQNRAPGVPARFSGSLIGDKAALTITGAQTEDEAIYFCALVYSNQWVFGGGTKLTVLG
notes: Built as m8
B17: Mutation 1-34 (antibody, V domains shown)
VH: EVQLQQSGPELVKPGASVKMSCKASGYTFTLYVLHWVKQKPGQGLEWIGYIQPYIDGTKYNEKFKGKATLTVDKSSSTAFMELSSLTSEDSAVYYCARSGYGNYGLAWLAYWGQGTLVTVSA
VL: QAVVIQESALTTSPGETVTLTCRSSTGAATTSNYANWVQEKPDHLFTGLIGGSNNRAPGVPARFSGSLIGDKAALTITGAQTEDEAIYFCALVYSNHWVFGGGTKLTVLG
notes: Built as m8
B18: Mutation 1-25 (antibody, V domains shown)
VH: EVQLQQSGPELVKPGASVKMSCKASGYTFTIYVLHWVKQKPGQGLEWIGYIYPYLDGTKYNEKFKGKATLTVDKSSSTAFMELSSLTSEDSAVYYCARSGYGNYGLAWLAYWGQGTLVTVSA
VL: QAVVIQESALTTSPGETVTLTCRSSTGAATTSNYANWVQEKPDHLFTGLIGGSQNRAPGVPARFSGSLIGDKAALTITGAQTEDEAIYFCALVYSNHWVFGGGTKLTVLG
notes: Built as m8
B19: Mutation 1-36 (antibody, V domains shown)
VH: EVQLQQSGPELVKPGASVKMSCKASGYTFTIYVVHWVKQKPGQGLEWIGYINPYIDGTKYNEKFKGKATLTVDKSSSTAFMELSSLTSEDSAVYYCARSGYGQYGLAWLAYWGQGTLVTVSA
VL: QAVVIQESALTTSPGETVTLTCRSSTGAVTTSQYANWVQEKPDHLFTGLIGGSNNRAPGVPARFSGSLIGDKAALTITGAQTEDEAIYFCALVYSNHWVFGGGTKLTVLG
notes: Built as m8; CDR-VL1 cell printed 'VQ', read as V/Q

What follows are binders tested against T1, cTnI quality control product recombinant protein (human, UniProt P19429 2-210, limits assumed) (assay: AMC sensor, antibody immobilised, cTnI in solution).
T1 construct: treated as the same molecule; also called cTnI antigen; cardiac troponin I
T1 sequence (P19429 2-210 limits assumed): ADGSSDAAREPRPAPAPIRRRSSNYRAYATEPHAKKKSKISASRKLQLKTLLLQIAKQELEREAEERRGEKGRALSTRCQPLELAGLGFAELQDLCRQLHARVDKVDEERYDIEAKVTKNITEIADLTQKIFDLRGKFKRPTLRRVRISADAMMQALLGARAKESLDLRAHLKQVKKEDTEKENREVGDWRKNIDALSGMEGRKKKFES
Protocol: Operating process: it is equilibrated in Buffer 1 (PBST) for 60 s, the antibody is immobilized in an antibody solution for 300 s, incubated in Buffer 2 (PBST) for 180 s, bound in antigen solution for 420 s, dissociated in the Buffer 2 for 1200 s, 10 mM of GLY solution with pH 1.69 and Buffer 3 are used for sensor regeneration, and data is output. KD represents an equilibrium dissociation constant, namely the affinity; Kon represents a binding rate; and Kd is represents a dissociation rate.
With B1 the Kd was 8.49 nM, the koff was 0.000353 s⁻¹ and the kon was 41600 M⁻¹ s⁻¹.
In the case of B2, the Kd is reported as 0.765 nM, the koff is reported as 5.3e-05 s⁻¹ and the kon is reported as 69300 M⁻¹ s⁻¹.
With B3 the Kd was 3.71 nM, the koff was 0.00022 s⁻¹ and the kon was 59500 M⁻¹ s⁻¹.
Work on B4 yielded a Kd of 0.353 nM, a koff of 7.31e-06 s⁻¹ and a kon of 20700 M⁻¹ s⁻¹.
For B5, the Kd was 9.41 nM, the koff was 0.00034 s⁻¹ and the kon was 36100 M⁻¹ s⁻¹.
B6 gave a Kd of 1.08 nM, a koff of 4.72e-05 s⁻¹ and a kon of 43600 M⁻¹ s⁻¹.
B7 gave a Kd of 0.63 nM, a koff of 3.62e-05 s⁻¹ and a kon of 57400 M⁻¹ s⁻¹.
For B8, the Kd was 0.254 nM, the koff was 1.72e-05 s⁻¹ and the kon was 67700 M⁻¹ s⁻¹.
B9 showed a Kd of 7.95 nM, a koff of 0.000331 s⁻¹ and a kon of 41700 M⁻¹ s⁻¹.
B10 showed a Kd of 0.821 nM, a koff of 6.8e-05 s⁻¹ and a kon of 82800 M⁻¹ s⁻¹.
In the case of B11, the Kd is reported as 1.76 nM, the koff is reported as 0.000158 s⁻¹ and the kon is reported as 89600 M⁻¹ s⁻¹.
With B12 the Kd was 0.465 nM, the koff was 1.85e-05 s⁻¹ and the kon was 39800 M⁻¹ s⁻¹.
Binder B13 has a Kd of 3.8 nM, a koff of 0.000207 s⁻¹ and a kon of 54500 M⁻¹ s⁻¹.
Binder B14 has a Kd of 0.832 nM, a koff of 4.31e-05 s⁻¹ and a kon of 51800 M⁻¹ s⁻¹.
With B15 the Kd was 1.85 nM, the koff was 4.05e-05 s⁻¹ and the kon was 21900 M⁻¹ s⁻¹.
B16 was tested, and the Kd was 5.21 nM, the koff was 0.000208 s⁻¹ and the kon was 39900 M⁻¹ s⁻¹.
Binder B17 has a Kd of 3.41 nM, a koff of 0.000198 s⁻¹ and a kon of 58000 M⁻¹ s⁻¹.
Binder B18 has a Kd of 6.6 nM, a koff of 0.00053 s⁻¹ and a kon of 80300 M⁻¹ s⁻¹.
B19 gave a Kd of 3.29 nM, a koff of 0.000118 s⁻¹ and a kon of 36000 M⁻¹ s⁻¹.
